This assay has as its target T1, Mouse aP2 (Mus musculus, UniProt P04117).
T1 construct: 10 His-tag (N, cleaved yes); TEV protease site (N, cleaved yes); made in house; host or cells: E. coli BL21DE3
T1 sequence (P04117 1-132): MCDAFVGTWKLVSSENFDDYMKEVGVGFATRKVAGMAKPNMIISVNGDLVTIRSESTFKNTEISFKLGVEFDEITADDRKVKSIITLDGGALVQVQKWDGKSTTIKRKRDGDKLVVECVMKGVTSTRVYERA
Description: Biacore binding of CA33 to lipid-bound and lipid-free aP2. As to the method: The affinity of anti-aP2 binding to aP2 (recombinantly generated in E. coli as described below) was determined by biomolecular interaction analysis, using a Biacore T200 system (GE Healthcare). Affinipure F(ab′)2 fragment goat anti-mouse IgG, Fc fragment specific (Jackson ImmunoResearch Lab, Inc.) in 10 mM NaAc, pH 5 buffer was immobilized on a CM5 Sensor Chip via amine coupling chemistry to a capture level between 4500-6000 response units (RU) using HBS-EP+(GE Healthcare) as the running buffer. Anti-aP2 IgG was diluted to between 1-10 μg/ml in running buffer. A 60 s injection of anti-aP2 IgG at 10 μl/min was used for capture by the immobilized anti-mouse IgG, Fc then aP2 was titrated from 25 nM to 3.13 nM over the captured anti-aP2 for 180 s at 30 μl/min followed by 300 s dissociation. The surface was regenerated by 2×60 s 40 mM HCl and 1×30 s 5 mM NaOH at 10 μl/min. The data were analyzed using Biacore T200 evaluation software (version 1.0) using the 1:1 binding model with local Rmax. For CA33, 60 s injection of the antibody at 10 μl/min was used for capture by the immobilized anti-mouse IgG, Fc then aP2 was titrated from 40 μM to 0.625 μM over the captured anti-aP2 for 180 s at 30 μl/min followed by 300 s dissociation. The surface was regenerated by 1×60 s 40 mM HCl, 1×30 s 5 mM NaOH and 1×60 s 40 mM HCl at 10 μl/min. Steady state fitting was used to determine affinity values. […]

Consider one molecule from patent publication US20250346646A1, “COMPOUNDS USEFUL TO TREAT METABOLIC DISORDERS” (President and Fellows of Harvard College, priority 2016, published 2025).

B1: CA33: low-affinity anti-aP2 monoclonal antibody, rabbit-mouse hybrid, produced and purified by UCB; VL Seq. ID 28, VH Seq. ID 41 (antibody, V domains shown)
VH: QSVEESGGRLVTPGTPLTLTCTVSGFSLSTYYMSWVRQAPGKGLEWIGIIYPSGSTYCASWAKGRFTISKASTTVDLKITSPTTEDTATYFCARPDNDGTSGYLSGFGLWGQGTLVTVSS
VL: DVVMTQTPASVSEPVGGTVTIKCQASEDISRYLVWYQQKPGQPPKRLIYKASTLASGVPSRFKGSGSGTDFTLTISDLECDDAATYYCQCTYGTYAGSFFYSFGGGTEVVVE
modifications: Rabbit Ab 909 VH region; Rabbit Ab 909 VL-region
Regarding B1, the Kd is, setting by setting: (De-lipidated mouse aP2, Biacore) 4.7 µM; (Lipid-loaded mouse aP2, Biacore) 9.3 µM.
